This is an account of results in US20250155429A1.

Assay [1] has as its target CD8. Description: same staining; plot CD8 against CD4: upper right 0.30, lower left 11.12.
In assay [2] the target is CD8. Description: same staining; plot CD8 against CD3, all events CD3-positive: upper left 0.00, lower left 0.00, lower right 71.27.
In assay [3] the target is CD45. As to the kind of experiment: flow cytometry of PBMCs, co-staining in the BSA series, 20% BSA; left quadrants 0.00 and 0.00. (In general: A flow cytometer gives signals particle by particle.)
Assay [4] addresses CD45. As to the kind of experiment: flow cytometry of PBMCs stained with four mouse IgG1 primaries, each pre-labelled with an anti-mouse IgG1 linker; plot CD3 against CD45: upper left 0.03, lower left 0.14.
The target of assay [5] is CD45. As to the kind of experiment: flow cytometry of PBMCs stained at once with mouse IgG1 anti-CD45 (linker-488, FITC), mouse IgG2a anti-CD3 (linker-555, PE), mouse IgG2b anti-CD4 (linker-647, APC); left plot: Q5 0, Q8 0.21.
Assay [6] deals with CD45. As to the kind of experiment: flow cytometry of PBMCs, co-staining in the BSA series, 10% BSA; left quadrants 0.00 and 0.01.
The target in assay [7] is CD45. Description: flow cytometry of PBMCs, co-staining in the BSA series, 0% BSA; left quadrants 0.00 and 0.01.
In assay [8] the target is CD3 (Homo sapiens (Human)) (UniProt P07766). As to the kind of experiment: flow cytometry of PBMCs, FSC-H against APC-A, No Quencher; Q4 100.0.

With CD8 (65144-1-Ig) (antibody), the % of cells, upper left quadrant (CD8-positive, CD4-negative) in assay [1] was determined as 28.4%. For the same substance, the % of cells, upper right quadrant (CD3+/CD8+) in assay [2] came to 28.7%.
Consider CD45 (65109-1-Ig) (antibody), for which, in assay [3], the % of cells, lower right quadrant (CD45-positive, CD3-negative) was determined as 45.7% and the % of cells, upper right quadrant (CD45-positive, CD3-positive) is 54.3%. In addition, in assay [4], the % of cells, lower right quadrant (CD45-positive, CD3-negative) worked out at 28.5% and the % of cells, upper right quadrant (CD3+/CD45+) is 71.4%. In assay [5], this substance showed a Q6 (% of cells, FITC-positive and PE-positive) of 55.4%; a Q7 (% of cells, FITC-positive and PE-negative) of 44.4%. Also, in assay [6], the % of cells, lower right quadrant (CD45-positive, CD3-negative) turned out to be 46.1% and the % of cells, upper right quadrant (CD45-positive, CD3-positive) was determined as 53.9%. In addition, in assay [7], the % of cells, lower right quadrant (CD45-positive, CD3-negative) turned out to be 47% and the % of cells, upper right quadrant (CD45-positive, CD3-positive) worked out at 52.9%.
For mouse IgG1 isotype control (antibody), the Q3 (% of cells, APC-positive) in assay [8] was 0.025%.
